The supplement of paper PMC7877785
± gives the uncertainty stated by the source.

Assay: self-splicing fitness, log relative to wild type (ln ratio); higher = more splicing; Tetrahymena group I intron in knt gene, E. coli kanamycin selection, DiMSum; sequences stand for … in CUCUCU…GGAGGGAAAAGUUAUCAGGCAUGCACCUGGUAGCUAGUCUUUAAACCAAUAGAUUGCAUCGGUUUAAAAGGCAAGACCGUCAAAUUGCGGGAAAGGGGUCAACAGCCGUUCAGUACCAAGUCUCAGGGGAAACUUUGAGAUGGCCUUGCAAAGGGUAUGGUAAUAAGCUGACGGACAUGGUCCUAACCACGCAGCCAAGUCCUAAGUCAACAGAUCUUCUGUUGAUAUGGAUGCAGUUCACAGACUAAAUGUCGGUCGGGGAAGAUGUAUUCUUCUCAUAAGAUAUAGUCGGACCUCUCCUUAAUGGGAGCUAGCGGAUGAAGUGAUGCAACACUGGAGCCGCUGGGAACUAAUUUGUAUGCGAAAGUAUAUUGAUUAGUUUUGGAGUACUCGUGGUCG
In short: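 Fitness was computed with DiMSum as the error-weighted combination of replicate fold changes, kanamycin versus none, each normalised to wild type. The library randomised all eight intron nucleotides of the P1ex region, with the intron placed in the knt kanamycin-resistance gene on pET-22b(+) in E. coli BL21(DE3). Six replicate transformations were grown overnight at 37°C or 30°C on LB agar with or without 25 μg/mL kanamycin, plus 100 μg/mL carbenicillin, 50 μM IPTG and 0.2% rhamnose. Pooled colonies were amplicon-sequenced on an Illumina HiSeq 2500.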

Sequence | self-splicing fitness (ln) (30 °C) | self-splicing fitness (ln) (37 °C)
AGCCAGCAAUAUUACGUAUC | -2.85 ± 0.15 | -2.21 ± 0.23
AGCCAGCAAUAUUACGUCUC | -3.95 ± 0.37 | -2.78 ± 0.27
AGCCAGCAAUAUUACGUGGC | -3.74 ± 0.19 | -3.57 ± 0.29
AGCCAGCAAUAUUACGUUAU | -3.94 ± 0.19 | -1.75 ± 0.12
AGCCAGCAAUAUUACGUUCC | -2.02 ± 0.17 | -2.04 ± 0.28
AGCCAGCAAUAUUACGUUCU | -0.687 ± 0.053 | -0.266 ± 0.068
AGCGAGCAAUAUUACGAAUG | -3.8 ± 0.43 | -2.2 ± 0.42
AGCGAGCAAUAUUACGACUU | -0.736 ± 0.078 | 0.37 ± 0.1
AGCGAGCAAUAUUACGAGGG | -2.74 ± 0.3 | -1.19 ± 0.35
AGCGAGCAAUAUUACGAGUG | -2.92 ± 0.25 | -2.12 ± 0.26
AGCGAGCAAUAUUACGAUGC | -3.11 ± 0.45 | 
AGCGAGCAAUAUUACGCAGU | -4.48 ± 0.28 | -2.78 ± 0.25
AGCGAGCAAUAUUACGCCGA |  | -0.607 ± 0.36
AGCGAGCAAUAUUACGCCUG | -3.09 ± 0.3 | -2.24 ± 0.36
AGCGAGCAAUAUUACGCUGA | -3.2 ± 0.18 | -2.51 ± 0.18
AGCGAGCAAUAUUACGCUGC | -1.51 ± 0.39 | -2.23 ± 0.42
AGCGAGCAAUAUUACGGAAU | -2.56 ± 0.26 | -2.66 ± 0.38
AGCGAGCAAUAUUACGGACU | -1.24 ± 0.15 | 0.232 ± 0.16
AGCGAGCAAUAUUACGGAUC | -3.42 ± 0.33 | -1.44 ± 0.49
AGCGAGCAAUAUUACGGCAG | -1.87 ± 0.14 | -1.07 ± 0.23
AGCGAGCAAUAUUACGGGUG | -2.75 ± 0.24 | -1.21 ± 0.21
AGCGAGCAAUAUUACGGUAA | -2.45 ± 0.27 | -2.49 ± 0.24
AGCGAGCAAUAUUACGGUCC | -0.807 ± 0.14 | -0.398 ± 0.18
AGCGAGCAAUAUUACGGUGC | -4.03 ± 0.28 | -2.97 ± 0.24

Sequence | self-splicing fitness (ln) (30 °C) | self-splicing fitness (ln) (37 °C)
AGCGAGCAAUAUUACGUACA | -2.08 ± 0.31 | -1.89 ± 0.2
AGCGAGCAAUAUUACGUAUG | -3.68 ± 0.35 | -3.3 ± 0.32
AGCGAGCAAUAUUACGUCCU | -0.026 ± 0.17 | -0.661 ± 0.18
AGCGAGCAAUAUUACGUGCG | -2.67 ± 0.094 | -0.964 ± 0.098
AGCUAGCAAUAUUACGAAGA | -2.45 ± 0.24 | -2.86 ± 0.18
AGCUAGCAAUAUUACGAUAG | -3.51 ± 0.2 | -2.84 ± 0.23
AGCUAGCAAUAUUACGAUCA | -2.01 ± 0.12 | -0.168 ± 0.11
AGCUAGCAAUAUUACGAUUA | -2.31 ± 0.21 | -0.806 ± 0.14
AGCUAGCAAUAUUACGCCAU | -1.92 ± 0.31 | -1.91 ± 0.43
AGCUAGCAAUAUUACGCUAC | -2.68 ± 0.48 | -2.77 ± 0.38
AGCUAGCAAUAUUACGCUGC | -3.59 ± 0.48 | 
AGCUAGCAAUAUUACGGACA | -1.06 ± 0.12 | 0.0203 ± 0.15
AGCUAGCAAUAUUACGGAGC | -2.44 ± 0.17 | -1.46 ± 0.23
AGCUAGCAAUAUUACGGAUA | -2.55 ± 0.17 | -1.87 ± 0.14
AGCUAGCAAUAUUACGGCCU | -0.139 ± 0.073 | -0.106 ± 0.091
AGCUAGCAAUAUUACGGGUA | -1.27 ± 0.073 | -0.597 ± 0.082
AGCUAGCAAUAUUACGGGUU | -2.74 ± 0.14 | -2.12 ± 0.18
AGCUAGCAAUAUUACGUAAA | -3.11 ± 0.19 | -1.14 ± 0.16
AGCUAGCAAUAUUACGUUGA | -2.68 ± 0.23 | -1.69 ± 0.16
AGGAAGCAAUAUUACGAACG | -1.19 ± 0.14 | -0.0957 ± 0.18
AGGAAGCAAUAUUACGACCU | -2.74 ± 0.22 | -2.29 ± 0.21
AGGAAGCAAUAUUACGAGUA | -2.59 ± 0.15 | -2.21 ± 0.17
AGGAAGCAAUAUUACGAUAC | -3.27 ± 0.26 | -2.02 ± 0.2
AGGAAGCAAUAUUACGAUCU | -0.809 ± 0.085 | -0.905 ± 0.11
